# From patent US20240115611A1 (KITE PHARMA, published 2024)
# T1: CD20 (human CD20) (human, UniProt P11836 1-297)
# T1 construct: whole, on cells; The cell line for each value is named under assay
# T1 sequence (looked up): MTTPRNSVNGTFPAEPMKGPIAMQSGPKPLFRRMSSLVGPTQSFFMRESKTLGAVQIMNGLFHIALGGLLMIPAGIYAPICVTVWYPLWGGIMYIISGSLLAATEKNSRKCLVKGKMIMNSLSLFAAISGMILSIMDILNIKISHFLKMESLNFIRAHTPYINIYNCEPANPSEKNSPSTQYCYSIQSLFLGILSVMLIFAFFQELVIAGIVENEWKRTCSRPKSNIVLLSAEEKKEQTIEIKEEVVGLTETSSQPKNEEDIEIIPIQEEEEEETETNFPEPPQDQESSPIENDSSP
# Columns and labels:
# CD20 (human CD20) [1] = target: T1, CD20 (human CD20); experiment: flow cytometry, purified IgG at 10 nM on Namalwa cells (CD20+), FITC-LC detection, ratio over negative control
# Procedure: (§1) To determine cell binding by exemplary heavy chain variable domains and light chain variable domains of the present disclosure, purified IgGs were characterized for cell binding at a concentration of 10 nM by flow cytometry. Antibodies were incubated with CHO-S cells overexpressing CD20, Raji, and Namalwa CD20+ cell lines; and with EoL-1 and CHO-S CD20-cell lines. FITC-LC was used to detect IgGs. The ratio of binding over negative controls was calculated for each antibody.
# CD20 (human CD20) [2] = target: T1, CD20 (human CD20); experiment: flow cytometry, purified IgG at 10 nM on Raji cells (CD20+), FITC-LC detection, ratio over negative control
# Procedure: as §1
# CD20 (human CD20) [3] = target: T1, CD20 (human CD20); experiment: flow cytometry, purified IgG at 10 nM on CHO-S cells overexpressing CD20, FITC-LC detection, ratio over negative control
# Procedure: as §1
binder,measurement,setting,value
"Ab1 (Exemplary Antibody Sequences 1), anti-CD20 antibody (antibody, V domains shown) VH: QVQLQQWGAGLLKPSETLSLTCAVYGGSFSGYYWSWIRQPPGKGLEWIGEIDHSGSTNYNPSLKSRVTISVDTSKNQFSLKLSSVTAADTAVYYCARGGGSWYSNWFDPWGQGTMVTVSS VL: DIQMTQSPSTLSASVGDRVTITCRASQSISSWLAWYQQKPGKAPKLLIYDASSLESGVPSRFSGSGSGTEFTLTISSLQPDDFATYYCQQDRSLPPTFGGGTKVEIK",Namalwa Cell Binding FON (Fold Over Negative),CD20 (human CD20) [1],12 fold
same,Raji Cell Binding FON (Fold Over Negative),CD20 (human CD20) [2],266 fold
same,CHO-CD20 Cell Binding FOB (Fold Over Background),CD20 (human CD20) [3],813 fold
"Ab4 (Exemplary Antibody Sequences 4), anti-CD20 antibody (antibody, V domains shown) VH: QVQLVQSGAEVKKPGASVKVSCKASGYTFKEYGISWVRQAPGQGLEWMGWISAYSGHTYYAQKLQGRVTMTTDTSTSTAYMELRSLRSDDTAVYYCARGPHYDDWSGFIIWFDPWGQGTLVTVSS VL: not shown",Namalwa Cell Binding FON (Fold Over Negative),CD20 (human CD20) [1],19 fold
same,Raji Cell Binding FON (Fold Over Negative),CD20 (human CD20) [2],479 fold
same,CHO-CD20 Cell Binding FOB (Fold Over Background),CD20 (human CD20) [3],3620 fold
"Ab3 (Exemplary Antibody Sequences 3), anti-CD20 antibody (antibody, V domains shown) VH: QLQLQESGPGLVKPSETLSLTCTVSGGSISSSSYYWGWIRQPPGKGLEWIGSIYYSGSTYYNPSLKSRVTISVDTSKNQFSLKLSSVTAADTAVYYCARETDYSSGMGYGMDVWGQGTTVTVSS VL: DIQMTQSPSSLSASVGDRVTITCRASQSINSYLNWYQQKPGKAPKLLIYAASSLQSGVPSRFSGSGSGTDFTLTISSLQPEDFATYYCQQSLADPFTFGGGTKVEIK",Namalwa Cell Binding FON (Fold Over Negative),CD20 (human CD20) [1],16 fold
same,Raji Cell Binding FON (Fold Over Negative),CD20 (human CD20) [2],316 fold
same,CHO-CD20 Cell Binding FOB (Fold Over Background),CD20 (human CD20) [3],2000 fold
"Ab5 (Exemplary Antibody Sequences 5), anti-CD20 antibody (antibody, V domains shown) VH: QVQLQESGPGLVKPSETLSLTCTVSGGSISSPDHYWGWIRQPPGKGLEWIGSIYASGSTFYNPSLKSRVTISVDTSKNQFSLKLSSVTAADTAVYYCARETDYSSGMGYGMDVWGQGTTVTVSS VL: DIQMTQSPSSLSASVGDRVTITCRASQSINSYLNWYQQKPGKAPKLLIYAASSLQSGVPSRFSGSGSGTDFTLTISSLQPEDFATYYCQQSLADPFTFGGGTKVEIK",Namalwa Cell Binding FON (Fold Over Negative),CD20 (human CD20) [1],17 fold
same,Raji Cell Binding FON (Fold Over Negative),CD20 (human CD20) [2],185 fold
same,CHO-CD20 Cell Binding FOB (Fold Over Background),CD20 (human CD20) [3],2480 fold
"Ab6 (Exemplary Antibody Sequences 6), anti-CD20 antibody (antibody, V domains shown) VH: QITLKESGPTLVKPTQTLTLTCTFSGFSLDTEGVGVGWIRQPPGKALEWLALIYFNDQKRYSPSLKSRLTITKDTSKNQVVLTMTNMDPVDTAVYYCARDTGYSRWYYGMDVWGQGTTVTVSS VL: DIQMTQSPSSVSASVGDRVTITCRASQGISSWLAWYQQKPGKAPKLLIYAASSLQSGVPSRFSGSGSGTDFTLTISSLQPEDFATYYCQQAYAYPITFGGGTKVEIK",Namalwa Cell Binding FON (Fold Over Negative),CD20 (human CD20) [1],2 fold
same,Raji Cell Binding FON (Fold Over Negative),CD20 (human CD20) [2],13 fold
same,CHO-CD20 Cell Binding FOB (Fold Over Background),CD20 (human CD20) [3],2520 fold
"Ab8 (Exemplary Antibody Sequences 8), anti-CD20 antibody (antibody, V domains shown) VH: QVQLQQWGAGLLKPSETLSLTCAVYGGSFSRYVWSWIRQPPGKGLEWIGEIDSSGKTNYNPSLKSRVTISVDTSKNQFSLKLSSVTAADTAVYYCARVRYDSSDSYYYSYDYGMDVWGQGTTVTVSS VL: not shown",Namalwa Cell Binding FON (Fold Over Negative),CD20 (human CD20) [1],10 fold
same,Raji Cell Binding FON (Fold Over Negative),CD20 (human CD20) [2],562 fold
same,CHO-CD20 Cell Binding FOB (Fold Over Background),CD20 (human CD20) [3],3830 fold
"Ab7 (Exemplary Antibody Sequences 7), anti-CD20 antibody (antibody, V domains shown) VH: QVQLQQWGAGLLKPSETLSLTCAVYGGSFEKYYWSWIRQPPGKGLEWIGEIYHSGLTNYNPSLKSRVTISVDTSKNQFSLKLSSVTAADTAVYYCARVRYDSSDSYYYSYDYGMDVWGQGTTVTVSS VL: not shown",Namalwa Cell Binding FON (Fold Over Negative),CD20 (human CD20) [1],11 fold
same,Raji Cell Binding FON (Fold Over Negative),CD20 (human CD20) [2],549 fold
same,CHO-CD20 Cell Binding FOB (Fold Over Background),CD20 (human CD20) [3],4080 fold
"Ab9 (Exemplary Antibody Sequences 9), anti-CD20 antibody (antibody, V domains shown) VH: QVQLQQWGAGLLKPSETLSLTCAVYGGSFSGYAWSWIRQPPGKGLEWIGEIDHRGFTNYNPSLKSRVTISVDTSKNQFSLKLSSVTAADTAVYYCARVRYDSSDSYYYSYDYGMDVWGQGTTVTVSS VL: not shown",Namalwa Cell Binding FON (Fold Over Negative),CD20 (human CD20) [1],11 fold
same,Raji Cell Binding FON (Fold Over Negative),CD20 (human CD20) [2],562 fold
same,CHO-CD20 Cell Binding FOB (Fold Over Background),CD20 (human CD20) [3],3620 fold
"Ab10 (Exemplary Antibody Sequences 10), anti-CD20 antibody (antibody, V domains shown) VH: QVQLQQWGAGLLKPSETLSLTCAVYGGSFQKYYWSWIRQPPGKGLEWIGEIDTSGFTNYNPSLKSRVTISVDTSKNQFSLKLSSVTAADTAVYYCARVGRYSYGYYITAFDIWGQGTTVTVSS VL: not shown",Namalwa Cell Binding FON (Fold Over Negative),CD20 (human CD20) [1],4 fold
same,Raji Cell Binding FON (Fold Over Negative),CD20 (human CD20) [2],186 fold
same,CHO-CD20 Cell Binding FOB (Fold Over Background),CD20 (human CD20) [3],3160 fold
"Ab2 (Exemplary Antibody Sequences 2), anti-CD20 antibody (antibody, V domains shown) VH: QVQLQQWGAGLLKPSETLSLTCAVYGGSFSGIHWNWIRQPPGKGLEWIGDIDTSGSTNYNPSLKSRVTISVDTSKNQFSLKLSSVTAADTAVYYCARLGQESATYLGMDVWGQGTTVTVSS VL: not shown",Namalwa Cell Binding FON (Fold Over Negative),CD20 (human CD20) [1],3 fold
same,Raji Cell Binding FON (Fold Over Negative),CD20 (human CD20) [2],101 fold
same,CHO-CD20 Cell Binding FOB (Fold Over Background),CD20 (human CD20) [3],2790 fold
